We go through two molecules from PMC8588432, “Selection and Characterization of Vimentin-Binding Aptamer Motifs for Ovarian Cancer”.

This data set addresses vimentin (human, UniProt P08670 2-466). In words: filter binding; Filter binding: 20 mM Tris, 150 mM NaCl, pH 8.0, 2 h, room temperature, 10 uL; flow cytometry: fixed IGROV cells, 22 C, 1 h; microscopy: 37 C, 1 h. Particulars: label: 5'-biotin; predicted stem-loop.

vimentin, sequence (P08670 2-466): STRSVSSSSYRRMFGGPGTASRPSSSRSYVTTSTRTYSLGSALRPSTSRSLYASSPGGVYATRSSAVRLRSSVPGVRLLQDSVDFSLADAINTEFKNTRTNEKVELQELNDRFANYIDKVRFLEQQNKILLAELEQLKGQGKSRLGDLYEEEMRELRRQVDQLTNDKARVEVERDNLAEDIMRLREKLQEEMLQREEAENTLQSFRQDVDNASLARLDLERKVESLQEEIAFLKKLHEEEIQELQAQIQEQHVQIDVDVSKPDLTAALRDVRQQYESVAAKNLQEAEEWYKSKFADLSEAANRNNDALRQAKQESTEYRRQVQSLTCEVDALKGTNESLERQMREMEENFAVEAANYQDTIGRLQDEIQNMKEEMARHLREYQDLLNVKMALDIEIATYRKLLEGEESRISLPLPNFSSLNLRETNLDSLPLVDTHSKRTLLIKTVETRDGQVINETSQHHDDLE

B1: V3M2 (XNA)
DNA: ACCTCTTCAAGAACATCCCTGTCACGGATCCTCTAGAGCA
modifications: monothioated phosphates 3' of adenines (shown in red, positions not in text)
As to B1, the Kd was 18.9 nM.

B2: V5M2 (XNA)
DNA: TAGACCCAGCTGGTCCGGAAAATAAGATGTCACGGATCCTC
modifications: monothioated phosphates 3' of adenines (shown in red, positions not in text)
For B2, the Kd was 47.4 nM.
